According to US20060240015A1 (Kyowa Kirin, published 2006):

What was measured:
[1] = biological target: T1, human insulin-like growth factor-I (human, UniProt P05019 49-118); experiment: SPR (Biacore 2000), hIGF-I amine-coupled on CM-5, antibody as analyte, 25 C
T1 construct: mature; In the ELISAs it was coated as a conjugate with methylated BSA; in Biacore it was amine-coupled to a CM-5 chip; also called hIGF-I; IGF-I
Description: (§1) In order to analyze the binding activity of the anti-hIGF rat monoclonal KM1468 to an antigen hIGF-I or hIGF-II, the binding affinities of the anti-hIGF rat monoclonal KM1468, a commercially available anti-hIGF-I antibody sm1.2 and a commercially available anti-hIGF-II antibody S1F2 to hIGF-I and hIGF-II were assayed in the following manner using the biosensor Biacore 2000 (manufactured by Biacore) utilizing surface plasmon resonance. For the diluting samples and as the reaction buffers in measurement, HBS-EP (10 mM HEPES, 150 mM NaCl, 3 mM EDTA, 0.005% Tween 20, pH 7.4) (manufactured by Biacore) was used.
(§2) Using an amine coupling (manufactured by Biacore), hIGF-I or hIGF-II were immobilized at 36.0 pg/mm² or 41.7 pg/mm², respectively, on sensor tip CM-5 (manufactured by Biacore). After 3 types of the antibodies which were diluted in 6 steps in 2-fold serial dilutions starting from 20 μg/ml as analytes, were added at a flow rate of 20 μl/minute for 2 minutes, the dissociation of the analytes was subsequently observed over 5 minutes. The reaction was carried out at 25° C. Based on the reaction curves at various concentrations, association constant Kass and dissociation constant Kdiss were calculated, to calculate the binding constant KA (M⁻¹) of these various antibodies. The binding constant KA is calculated by KA=Kass/Kdiss.

[2] = biological target: T2, partial peptide of hIGF-I corresponding to 14th to 30th (human); experiment: competitive ELISA, methylated BSA-hIGF-I coated, peptide in solution
T2 construct: also called p14-30
T2 peptide: CLQFVAGDRGFYFNKPTG

[3] = biological target: T3, partial peptide of hIGF-I corresponding to 36th to 47th (human); experiment: as above
T3 construct: also called p36-47
T3 peptide: RRAPQTGIVDEC

[4] = biological target: T4, partial peptide of hIGF-I corresponding to 41st to 56th having an inner Cys (human); experiment: as above
T4 construct: also called p41-56C; p41-56c
T4 peptide: CTGIVDECCFRSCDLRR

[5] = biological target: T5, partial peptide of hIGF-I corresponding to 29th to 41st (human); experiment: as above
T5 construct: also called p29-41
T5 peptide: CTGYGSSSRRAPQT

[6] = biological target: T6, partial peptide of hIGF-I corresponding to 24th to 35th (human); experiment: as above
T6 construct: also called p24-35
T6 peptide: CYFNKPTGYGSSS

[7] = biological target: T7, partial peptide of hIGF-I corresponding to 61st to 70th (human); experiment: as above
T7 construct: also called p61-70
T7 peptide: CAPLKPAKSA

[8] = biological target: T8, partial peptide of hIGF-I corresponding to 1st to 18th (human); experiment: as above
T8 construct: also called p1-18
T8 peptide: GPETLSGAELVDALQFVC

[9] = biological target: T9, partial peptide of hIGF-I corresponding to 41st to 56th (human); experiment: as above
T9 construct: also called p41-56
T9 peptide: CTGIVDEAAFRSADLRR

[10] = biological target: T10, partial peptide of hIGF-I corresponding to 52nd to 70th (human); experiment: as above
T10 construct: also called p52-70
T10 peptide: CDLRRLEMYAAPLKPAKSA

[11] = biological target: T1, human insulin-like growth factor-I; experiment: SPR (Biacore 2000)
[12] = biological target: T11, human insulin-like growth factor-II (human, UniProt P01344 25-91); experiment: SPR (Biacore 2000)
T11 construct: also called hIGF-II; IGF-II
T11 sequence (P01344 25-91 limits assumed): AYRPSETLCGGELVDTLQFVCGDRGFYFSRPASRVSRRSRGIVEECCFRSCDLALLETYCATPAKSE

[13] = biological target: T12, human insulin (human, UniProt P01308 25-54; P01308 90-110); experiment: competitive ELISA, methylated BSA-hIGF-I or methylated BSA-hIGF-II coated, insulin in solution
T12 construct: Bought
T12 sequence (P01308 25-54 limits assumed, chain 1 of 2): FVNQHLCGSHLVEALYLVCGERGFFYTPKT
T12 sequence (P01308 90-110 limits assumed, chain 2 of 2): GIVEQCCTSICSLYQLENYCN
Source text: Cross reactivity of the purified anti-hIGF rat antibody KM1468 with hIGF-II and human insulin was examined by the competitive ELISA shown below. As the antigens, hIGF-I (manufactured by Pepro Tech), hIGF-II (manufactured by Pepro Tech) and human insulin (manufactured Wako Pure Chemical Industries) were used.
The methylated BSA-hIGF-I antigen prepared in Reference Example 1(1) or a methylated BSA-hIGF-II antigen prepared in the same manner as in Reference Example 1(1) was immobilized on a plate in accordance with the method shown in Reference Example 1(4), at a concentration of 0.1 μg/ml in the case of the methylated BSA-hIGF-I antigen, or at a concentration of 1.0 μg/ml in the case of the methylated BSA-hIGF-II antigen, KM1468 diluted to 0.6 μg/ml was dispensed at 25 μl/well, and then each of 4-fold serial dilutions of hIGF-I, hIGF-II or human insulin prepared by starting from 20 μg/ml was dispensed at 25 μl/well, mixed and left at room temperature for 1 hour. After the reaction and subsequent washing with Tween-PBS, 1000-fold diluted peroxidase-labeled rabbit anti-rat Ig antibody (manufactured by DAKO) was added at 50 μl/well as the secondary antibody in the case of the anti-hIGF antibody KM1468. […] The results are represented by relative values (%) wherein OD415 when an antibody was added alone was defined as 100.

[14] = biological target: T11, human insulin-like growth factor-II; experiment: SPR (Biacore 2000), hIGF-II amine-coupled on CM-5, antibody as analyte, 25 C
Description: as §1, §2

T1 sequence (P05019 49-118): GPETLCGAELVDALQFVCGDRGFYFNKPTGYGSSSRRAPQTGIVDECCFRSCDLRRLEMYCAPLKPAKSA

B1: anti-hIGF rat monoclonal antibody KM1468 (antibody, rat IgG2b, V domains shown)
VH: EVHLVESGGGLVQPGRSLKLSCAASGFTFSNYYMTWVRQAPTKGLEWVAYISSGGGSTYYRDSVKGRFTISRDNAKSTLYLQMDSLRSEDTATYYCTTEDYGYWFAYWGQGTLVTVSS
VL: EIVLTQSPTTMAASPGEKVTITCRASSSVSYMHWFQQKSGTSPKPWIYGTSKLASGVPDRFSGSGSGTSYSLTISSMEAEDAATYYCLQRSSYPPTFGAGTKLELK
notes: Rat IgG2b, kappa; Hybridoma FERM BP-7978; also called anti-hIGF antibody KM1468; anti-hIGF rat antibody KM1468
Ka [1]: 7.86e+09 M⁻¹ | binding result [2]: no binding (tested: 3-fold serial dilutions from 50 µg/mL) | binding result [3]: no binding (tested: 3-fold serial dilutions from 50 µg/mL) | binding result [4]: no binding (tested: 3-fold serial dilutions from 50 µg/mL) | binding result [5]: no binding (tested: 3-fold serial dilutions from 50 µg/mL) | binding result [6]: no binding (tested: 3-fold serial dilutions from 50 µg/mL) | binding result [7]: no binding (tested: 3-fold serial dilutions from 50 µg/mL) | binding result [8]: no binding (tested: 3-fold serial dilutions from 50 µg/mL) | binding result [9]: no binding (tested: 3-fold serial dilutions from 50 µg/mL) | binding result [10]: no binding (tested: 3-fold serial dilutions from 50 µg/mL) | KA relative to S1F2 (fold) [11]: ~18 fold | KA relative to sm1.2 (fold) [11]: ~42 fold | KA relative to S1F2 (fold) [12]: ~3.6 fold | KA relative to sm1.2 (fold) [12]: ~120 fold | binding result [13]: no binding | Ka [14]: 8.63e+09 M⁻¹
